Each block holds one molecule with its values, some of them ahead of it.
Legend:
Type in all cases: cell-based
[1] = system: promoter region of the human type-I collagen α2 strand gene (binding reporter vector); assay: CAT reporter assay of test substances, binding reporter vector-transduced fibroblast
Description: (§1) 2 ml of an angelica extract [ICHIMARU-PHARCOS, PHARCOLEX (trade mark of ICHIMARU-PHARCOS), angelica] and 2 ml of a basswood extract [ICHIMARU-PHARCOS, PHARCOLEX (trade mark of ICHIMARU-PHARCOS), linden] were freeze-dried and each was combined with 1 ml of dimethyl sulfoxide (hereinafter referred to as DMSO) per 50 mg of the freeze-dried material, whereby obtaining an angelica extract sample and a linden extract sample.
(§2) A normal human fetal dermal fibroblast was inoculated in a population of 1×10^6 cells in a 60-mm dish and incubated in D-MEM (+) overnight at 37° C. under 5% CO2 atmosphere, and then the culture medium was replaced with D-MEM (−). On the other hand, 100 μl of D-MEM (−) was combined with either of 2 μg of the binding reporter vector DNA or 2 μg of the non-binding reporter vector DNA obtained in Example 2 (3), and the mixture was allowed to stand at room temperature for 40 minutes (Solution 1). To 100 μl of MEM(−), 4.5 μl of Lipofectine (Gibco, Catalog No.18292-011) was added and the mixture was allowed to stand at room temperature for 40 minutes (Solution 2). Then Solution 1 and Solution 2 were mixed and allowed to stand at room temperature for 10 minutes, and then combined with 2 ml of D-MEM (−) and mixed. This mixture was added to the normal human fetal fibroblast described above, which was then incubated at 37° C. under 5% CO2 atmosphere for 6 hours. […]

[2] = system: DNA-binding protein of invention (YB-1) fused with GFP (pCMX-YB-1-GFP); assay: Fluorescent microscope examination of migration of YB-1-GFP into the nucleus; conditions: human fibroblast transduced with pCMX-YB-1-GFP; 4 hours contact; IFN-γ 100 U/ml as positive control
Description: 100 ng of YB-1/RSV, 10 pmol of an oligonucleotide consisting of the nucleotide sequence represented by SEQ ID NO:.15, 10 pmol of an oligonucleotide consisting of the nucleotide sequence represented by SEQ ID NO:.16, 5 μl of the buffer included in KOD-Dash (TOYOBO, Catalog No.RR002A), 5 μl of Mg^2+ solution, 5 μl of dNTP mixture, 1 μl of KOD-Dash and distilled water were mixed to prepare 50 μl in total of a PCR solution, which was used to perform a PCR. The condition of the PCR involved an incubation at 94° C. for 2 minutes, followed by 35 cycles, each cycle involving the incubations at 94° C. for 15 seconds, 60° C. for 30 seconds and then 68° C. for 1 minute. After the PCR, the PCR solution was digested with HindIII and Pm1I and subjected to an ethanol precipitation to recover a DNA (hereinafter a DNA obtained as a residue is referred to as a YB-1DNA.). […] The nucleotide sequence of the plasmid DNA thus obtained was analyzed, and a plasmid having a nucleotide sequence in which a GFP amino acid sequence was encoded downstream of the amino acid sequence of the DNA-binding protein of the present invention with its reading flame being continued was selected. […]

[3] = system: human type-I collagen α2 strand mRNA; assay: Type-I collagen α2 strand mRNA quantity (northern blotting) with test substances; conditions: extract 50 μg lyophilized sample per ml, INF-γ 100 U/ml
Description: A normal human fetal dermal fibroblast was inoculated in a population of […] in a 100-mm dish and incubated in D-MEM (+) overnight at 37° C. under 5% CO2 atmosphere. This cell was supplemented with the angelica extract sample prepared in Example 7 (2) at 50 μg lyophilized sample per ml medium and incubated further for 24 hours. In a case of negative control, the angelica extract sample was replaced with DMSO (added at 0.1% in the medium).
In a case of positive control, the angelica extract sample was replaced with INF-γ (added at 100 U/ml in the medium). The cell thus incubated was washed twice with a PBS, and used to prepare a total RNA similarly to Example 1 (1). […] The radioactivity of the air-dried filter was determined using BAStation.
On the other hand, 10 μg of the total RNA was subjected to an electrophoresis on the gel described above which contained 0.5 μg/ml of ethidium bromide (Gibco BRL, Catalog No.15582-018) and the fluorescent intensity of 28S ribosome RNA was quantified using Luminescent Image Analyzer LAS-1000 plus (FUJI FILM) and Image Gauge Ver 3.12 (FUJI FILM). The quantity of the type-I collagen α2 strand mRNA relative to the 28S ribosome RNA was calculated in accordance with the following equation. Type-I collagen α2 strand mRNA quantity=Radioactivity of band of about 5.8 kb/fluorescent intensity of 28S ribosome RNA […]

[4] = system: non-binding reporter vector; assay: CAT reporter assay of test substances, non-binding reporter vector-transduced fibroblast; conditions: normal human fetal dermal fibroblast; sample 1 μg freeze dried material/ml, IFN-γ 100 U/ml; 40 hours; negative control of binding reporter cell = 1.0
Description: as §1, §2

Molecule: CC(O)C(O)/C=C/C=C\CC/C=C/C(=O)NCC(C)(C)O (stereo not drawn) [Compound A]
relative CAT activity ([1]; binding reporter vector-transduced normal human fetal dermal fibroblast, 8 μM in medium, methanol negative control = 1.0): 0.7

localisation of YB-1-GFP fluorescence (cytoplasmic / intranuclear) [2]: no cytoplasmic fluorescence
B1: Positive control: interferon-γ (Roche) added at 100 U/ml in the medium (protein, UniProt P01579 24-161, looked up)
Interferon gamma: QDPYVKEAENLKKYFNAGHSDVADNGTLFLGILKNWKEESDRKIMQSQIVSFYFKLFKNFKDDQSIQKSVETIKEDMNVKFFNSNKKKRDDFEKLTNYSVTDLNVQRKAIHELIQVMAELSPAAKTGKRKRSQMLFRG
Relative transcription level of type-I collagen gene (α2 strand mRNA level) ([3]; Table 5, TGFβ column prints Absent (method: TGFβ 10 ng/ml), negative control with TGFβ = 1.0): 0.5 | Relative transcription level of type-I collagen gene (α2 strand mRNA level) ([3]; normal human fetal dermal fibroblast, TGFβ absent, 24 hours, negative control = 1.0): 0.5 | Relative CAT activity, binding reporter vector-transduced cell ([1]; normal human fetal dermal fibroblast, sample 1 μg freeze dried material/ml, IFN-γ 100 U/ml, 40 hours, negative control = 1.0): 0.6 | Relative CAT activity, non-binding reporter vector-transduced cell [4]: 0.9
